Target: T1, GAL4DBD-BRCA1 wild-type (aa 1315–1863) (UniProt P38398 1315-1863)
T1 construct: BRCA1, aa 1315-1863; bait of the mammalian two-hybrid; source: HEK293FT, transfected (mammalian two-hybrid fusion)
Assay: two-hybrid; mammalian two-hybrid in HEK293FT cells: VP16 AD-PALB2 N- or C-terminal construct (prey) co-transfected with GAL4DBD-BRCA1 or GAL4DBD-BRCA2 (bait), pG5Luc reporter and pGR-TK internal control; dual-luciferase read 24 h post-transfection; mean percentage luciferase activity of 3 independent experiments
Conditions: partners not purified

T1 sequence (P38398 1315-1863): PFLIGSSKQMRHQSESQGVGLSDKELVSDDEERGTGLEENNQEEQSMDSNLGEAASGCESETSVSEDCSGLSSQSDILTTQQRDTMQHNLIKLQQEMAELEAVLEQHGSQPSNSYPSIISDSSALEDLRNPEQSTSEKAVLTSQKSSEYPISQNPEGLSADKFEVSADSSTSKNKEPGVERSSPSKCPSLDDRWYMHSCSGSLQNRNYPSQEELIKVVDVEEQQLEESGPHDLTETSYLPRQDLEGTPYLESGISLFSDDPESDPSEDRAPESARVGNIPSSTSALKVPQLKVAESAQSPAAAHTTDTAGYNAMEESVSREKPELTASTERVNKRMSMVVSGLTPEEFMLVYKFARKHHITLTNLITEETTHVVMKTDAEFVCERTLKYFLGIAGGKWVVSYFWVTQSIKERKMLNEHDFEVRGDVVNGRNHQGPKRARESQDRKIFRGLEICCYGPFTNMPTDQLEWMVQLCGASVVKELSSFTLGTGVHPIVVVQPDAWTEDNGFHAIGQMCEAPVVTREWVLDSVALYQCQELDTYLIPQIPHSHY

B1: VP16 AD-PALB2 N-terminal wild-type (aa 1–319) (domain or fragment, human, UniProt Q86YC2 1-319, looked up)
chain: MDEPPGKPLSCEEKEKLKEKLAFLKREYSKTLARLQRAQRAEKIKHSIKKTVEEQDCLSQQDLSPQLKHSEPKNKICVYDKLHIKTHLDEETGEKTSITLDVGPESFNPGDGPGGLPIQRTDDTQEHFPHRVSDPSGEQKQKLPSRRKKQQKRTFISQERDCVFGTDSLRLSGKRLKEQEEISSKNPARSPVTEIRTHLLSLKSELPDSPEPVTEINEDSVLIPPTAQPEKGVDTFLRRPNFTRATTVPLQTLSDSGSSQHLEHIPPKGSSELTTHDLKNIRFTSPVSLEAQGKKMTVSTDNLLVNKAISKSGQLPTSS
notes: PALB2 (1186-amino acid protein), human, aa 1-319; cloned in pVP16 downstream of the VP16 AD cassette; prey; also called PALB2 WT; PALB2 N-terminal construct; source: HEK293FT, transfected (mammalian two-hybrid fusion)
fold increase of luciferase-reporter activity over BRCA1 alone: 2 fold

Reference: article PMC6847799, “A global functional analysis of missense mutations reveals two major hotspots in the PALB2 tumor suppressor” (Nucleic Acids Research, 2019)
